Laboratory results reported in paper PMC5429572, “Intrabodies against the Polysialyltransferases ST8SiaII and ST8SiaIV inhibit Polysialylation of NCAM in rhabdomyosarcoma tumor cells” (BMC Biotechnology, 2017).

B1: αST8SiaII-IB (ER intrabody against ST8SiaII, scFv from mAb 3167) (scFv, V domains shown)
VH: QVQLQQPGAELVKAGASVKLSCKASGYTFTNYWMHWVKQRPGQGLEWIGEIDPSESYTNYNQKFKGKATLTVDKSASTAYMQLSSLTSEDSAVYYCTRGDYWGQGTTLTVSS
VL: DVVVTQTPLSLPVSFGDQVSISCRSSQSLANSYGNTYLSWYLHKPGQSPQLLIYGISNRFSGVPDRFSGSGSGTDFTLKISTIKPEDLGIYYCLQGAHQPWTFGGGTKLEIK
notes: synthetic linker, printed as (Gly4 Ser)3; Encoded with an N-terminal ER signal peptide from the vector pCMV/myc/ER; the myc tag is followed by the ER retention signal; also called anti-ST8SiaII-IB; anti-ST8SiaII intrabody; source: HEK293, transiently transfected (pCMV/myc/ER), in lysate; not shown: myc, C-terminal, kept
B2: αST8SiaIV-IB (ER intrabody against ST8SiaIV, scFv from mAb 3175) (scFv, V domains shown)
VH: EVQLQQSGAELVRSGASVKLSCTTSGFNIKDYYMHWVKQRPEQGLEWIGWIDPENGDTEYAPKFQGKATMTADTSSNTAYLQLSSLTSEDTAVYYCNYRFLAMEYWGQGTSVTVSS
VL: NIMMTQSPSSLAVSAGEKVTMSCKSSQSVLYTSNQKNYLAWYQQKPGQSPKLLIYWASTRESGVPDRFTGSGSGTDFTLTISSVQAEDLAVYYCHQYLSSYTFGGGTKLEIK
notes: synthetic linker, printed as (Gly4 Ser)3; Encoded with an N-terminal ER signal peptide from the vector pCMV/myc/ER; the myc tag is followed by the ER retention signal; also called anti-ST8SiaIV-IB; anti-ST8SiaIV intrabody; source: HEK293, transiently transfected (pCMV/myc/ER), in lysate; not shown: myc, C-terminal, kept

Columns and labels:
[1] = target: T1, Flag-HA-tagged ST8SiaII expressed in HEK293 cells (Mus musculus (assumed), UniProt O35696, N-glycosylated (several glycoforms, fully glycosylated about 60 kDa)); assay: co-IP; HEK293 cells co-transfected with Flag-HA-tagged polyST and myc-tagged intrabody; lysis in 50 mM Tris-HCl pH 8, 1 mM MgCl2, 1% NP-40; precipitated with anti-myc antibody and Protein G PLUS Agarose; blot with anti-FLAG M5; settings: partners not purified
T1 construct: polysialyltransferase ST8SiaII; The empty vector of the control is pcDNA3-FLAG-HA; The CHO line of the functional rows carries N-terminally Flag-HA-tagged murine ST8SiaII; also called polyST; source: HEK293, transiently transfected, in lysate

[2] = target: T2, Flag-HA-tagged ST8SiaIV expressed in HEK293 cells (Cricetulus griseus (assumed), UniProt Q64690, N-glycosylated (several glycoforms, fully glycosylated about 55 kDa)); assay: as above; settings: partners not purified
T2 construct: polysialyltransferase ST8SiaIV; The empty vector of the control is pcDNA3-FLAG-HA; The CHO line of the functional rows carries Flag-HA-tagged hamster ST8SiaIV; also called ST8SiaVI; polyST; source: HEK293, transiently transfected, in lysate
T2 sequence (Q64690 whole entry): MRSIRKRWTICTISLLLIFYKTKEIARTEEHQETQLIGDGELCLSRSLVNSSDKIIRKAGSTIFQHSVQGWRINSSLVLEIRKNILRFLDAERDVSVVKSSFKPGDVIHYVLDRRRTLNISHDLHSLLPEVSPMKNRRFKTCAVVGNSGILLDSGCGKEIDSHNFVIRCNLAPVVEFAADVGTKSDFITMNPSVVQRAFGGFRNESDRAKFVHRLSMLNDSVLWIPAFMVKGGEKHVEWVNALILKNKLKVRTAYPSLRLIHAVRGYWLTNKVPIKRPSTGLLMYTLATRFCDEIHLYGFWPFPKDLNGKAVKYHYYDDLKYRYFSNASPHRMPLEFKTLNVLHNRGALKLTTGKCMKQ

T1 sequence (O35696 whole entry): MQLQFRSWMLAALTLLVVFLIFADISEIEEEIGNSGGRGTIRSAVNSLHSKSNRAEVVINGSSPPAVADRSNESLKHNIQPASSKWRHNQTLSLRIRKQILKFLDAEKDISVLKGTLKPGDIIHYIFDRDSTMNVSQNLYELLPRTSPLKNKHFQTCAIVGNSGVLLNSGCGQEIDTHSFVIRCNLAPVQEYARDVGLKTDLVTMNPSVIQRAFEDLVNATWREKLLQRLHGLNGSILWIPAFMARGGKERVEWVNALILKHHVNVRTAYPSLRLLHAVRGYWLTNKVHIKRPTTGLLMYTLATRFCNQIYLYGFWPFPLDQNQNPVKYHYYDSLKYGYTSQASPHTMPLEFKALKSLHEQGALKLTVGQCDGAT

| Binder | binding result [1] | binding result [2] |
| --- | --- | --- |
| B1 | binds | – |
| B2 | – | binds |
